Target: T1, human CD19 (antigen) (human, UniProt P15391 20-291, limits assumed)
T1 sequence (looked up): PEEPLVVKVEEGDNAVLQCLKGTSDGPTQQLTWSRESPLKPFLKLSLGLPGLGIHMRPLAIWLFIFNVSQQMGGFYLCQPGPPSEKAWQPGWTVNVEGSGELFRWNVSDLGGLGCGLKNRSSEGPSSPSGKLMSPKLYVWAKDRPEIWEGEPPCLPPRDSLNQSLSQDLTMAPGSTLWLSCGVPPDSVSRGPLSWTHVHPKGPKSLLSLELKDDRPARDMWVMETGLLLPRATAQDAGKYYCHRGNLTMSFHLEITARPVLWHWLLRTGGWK
Assay: affinity determination, method not stated; humanized monoclonal antibody

Kd: 28.4 nM
B1: humanized anti-CD19 antibody (H-CD19) (antibody, V domains shown)
VH: QVTLRESGPALVKPTQTLTLTCTFSGVSLPDYGVSWIRQPPGKALEWLAVIWGSETTYYNSALKSRLTISKDTSKNQVVLTMTNMDPVDTATYYCAKHYYYGGSYAMDYWGQGTTVTVSS
VL: EIVLTQSPATLSLSPGERATLSCRASQDISKYLNWYQQKPGQAPRLLIYHTSRLHSGIPDRFSGSGSGTDFTLTISRLEPEDIAVYYCQQGNTLPYTFGQGTKLEI
notes: also called humanized monoclonal antibody

From patent publication US20230203178A1 (SICHUAN KELUN BIOTECH BIOPHARMACEUTICAL, published 2023)
